Each block holds one binder with its values, some of them ahead of it.
Molecular target: ezrin FERM domain (residues 1–298), untagged (UniProt P15311 1-298)
Experiment: pull-down

ezrin FERM domain (residues 1–298), untagged, sequence (P15311 1-298): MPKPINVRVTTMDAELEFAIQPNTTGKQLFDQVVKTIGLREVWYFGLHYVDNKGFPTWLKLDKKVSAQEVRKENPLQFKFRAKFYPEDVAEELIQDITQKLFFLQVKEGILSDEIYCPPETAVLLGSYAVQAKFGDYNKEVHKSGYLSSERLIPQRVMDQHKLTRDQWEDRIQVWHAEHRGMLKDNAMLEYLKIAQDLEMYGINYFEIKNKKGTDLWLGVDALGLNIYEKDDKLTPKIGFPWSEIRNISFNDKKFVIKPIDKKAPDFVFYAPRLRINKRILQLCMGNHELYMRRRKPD

half-life of dissociation from ezrin FERM beads: ~10 min
B1: SUMO-tagged EBP50 (natural protein, human, UniProt O14745 1-358, looked up)
chain: MSADAAAGAPLPRLCCLEKGPNGYGFHLHGEKGKLGQYIRLVEPGSPAEKAGLLAGDRLVEVNGENVEKETHQQVVSRIRAALNAVRLLVVDPETDEQLQKLGVQVREELLRAQEAPGQAEPPAAAEVQGAGNENEPREADKSHPEQRELRPRLCTMKKGPSGYGFNLHSDKSKPGQFIRSVDPDSPAEASGLRAQDRIVEVNGVCMEGKQHGDVVSAIRAGGDETKLLVVDRETDEFFKKCRVIPSQEHLNGPLPVPFTNGEIQKENSREALAEAALESPRPALVRSASSDTSEELNSQDSPPKQDSTAPSSTSSSDPILDFNISLAMAKERAHQKRSSKRAPQMDWSKKNELFSNL

half-life of dissociation from ezrin FERM beads: ~16 min
B2: SUMO-tagged E3KARP (natural protein, human, UniProt Q15599 1-337, looked up)
chain: MAAPEPLRPRLCRLVRGEQGYGFHLHGEKGRRGQFIRRVEPGSPAEAAALRAGDRLVEVNGVNVEGETHHQVVQRIKAVEGQTRLLVVDQETDEELRRRQLTCTEEMAQRGLPPAHDPWEPKPDWAHTGSHSSEAGKKDVSGPLRELRPRLCHLRKGPQGYGFNLHSDKSRPGQYIRSVDPGSPAARSGLRAQDRLIEVNGQNVEGLRHAEVVASIKAREDEARLLVVDPETDEHFKRLRVTPTEEHVEGPLPSPVTNGTSPAQLNGGSACSSRSDLPGSDKDTEDGSAWKQDPFQESGLHLSPTAAEAKEKARAMRVNKRAPQMDWNRKREIFSNF

Reference: publication PMC3814156 (Molecular Biology of the Cell, 2013)
